B1: Early protein (Human adenovirus C serotype 5 (HAdV-5)), P03255-2 (parent)
chain: MRHIICHGGVITEEMAASLLDQLIEEVLADNLPPPSHFEPPTLHELYDLDVTAPEDPNEEAVSQIFPDSVMLAVQEGIDLLTFPPAPGSPEPPHLSRQPEQPEQRALGPVSMPNLVPEVIDLTCHEAGFPPSDDEDEEGPVSEPEPEPEPEPEPARPTRRPKMAPAILRRPTSPVSRECNSSTDSCDSGPSNTPPEIHPVVPLCPIKPVAVRVGGRRQAVECIEDLLNEPGQPLDLSCKRPRP
partner: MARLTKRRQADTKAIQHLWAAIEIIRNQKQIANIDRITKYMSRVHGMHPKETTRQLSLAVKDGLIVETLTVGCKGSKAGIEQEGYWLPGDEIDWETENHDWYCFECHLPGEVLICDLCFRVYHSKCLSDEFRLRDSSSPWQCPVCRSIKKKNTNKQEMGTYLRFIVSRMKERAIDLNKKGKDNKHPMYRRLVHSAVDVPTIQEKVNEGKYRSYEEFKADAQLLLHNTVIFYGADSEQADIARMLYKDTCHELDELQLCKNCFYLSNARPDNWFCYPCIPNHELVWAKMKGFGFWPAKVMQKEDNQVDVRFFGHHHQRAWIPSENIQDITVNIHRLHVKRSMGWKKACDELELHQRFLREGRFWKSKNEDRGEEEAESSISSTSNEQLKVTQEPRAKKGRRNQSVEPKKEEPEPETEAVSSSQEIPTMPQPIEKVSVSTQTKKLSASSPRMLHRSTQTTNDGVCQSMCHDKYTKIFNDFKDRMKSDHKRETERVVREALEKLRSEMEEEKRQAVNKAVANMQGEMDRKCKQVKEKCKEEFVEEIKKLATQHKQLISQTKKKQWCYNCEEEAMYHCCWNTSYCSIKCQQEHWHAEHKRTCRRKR

Variants of: B1
Conditions: with zmy11_human ZMYND11, Q15326

Variant	effect of a mutation on the interaction
L115A	disrupting interaction

— IntAct's records for PubMed 11733528
